Data: paper PMC5379923

Target: monobody L3 E29Q labeled with EDANS at A12C
Assay: fluorescence polarisation

B1: Fluc homologue from Bordetella pertussis, Bpe (natural protein)
chain: MLTYAPLNFIAIGIGATLGAWLRWVLGLRLNGAGWPWGTLTANLVGGYLIGVMVALIASHPEWPAWIRLAAVTGFLGGLTTFSTFSAETVDMLERGVYATAAAYAGASLAGSLAMTGLGLATVRLLLR
  Kd: 150 nM
